Assays:
[1] = target: T1, SPRED1(EVH1), SPRED1(13–125), wild type (ITC), Q7Z699; test: ITC; settings: chain shown with the change
T1 chain: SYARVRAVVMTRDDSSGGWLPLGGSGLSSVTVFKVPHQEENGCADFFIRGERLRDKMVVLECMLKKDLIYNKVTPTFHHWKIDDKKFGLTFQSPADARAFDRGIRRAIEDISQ

[2] = target: T2, NF1(GRD), neurofibromin GAP-related domain, wild type (ITC), P21359-2; test: ITC; settings: chain shown with the change
T2 chain: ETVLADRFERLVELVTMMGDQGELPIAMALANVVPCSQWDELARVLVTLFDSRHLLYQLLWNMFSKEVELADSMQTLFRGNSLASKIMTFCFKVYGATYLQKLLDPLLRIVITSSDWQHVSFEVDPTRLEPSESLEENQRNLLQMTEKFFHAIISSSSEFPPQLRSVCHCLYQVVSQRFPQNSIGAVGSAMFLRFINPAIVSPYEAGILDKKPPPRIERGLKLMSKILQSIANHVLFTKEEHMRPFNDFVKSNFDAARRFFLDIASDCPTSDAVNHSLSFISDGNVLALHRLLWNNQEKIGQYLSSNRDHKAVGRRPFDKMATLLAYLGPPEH

[3] = target: NF1(GRD), neurofibromin GAP-related domain, wild type (ITC) (human) (UniProt P21359); test: ITC; MicroCal PEAQ-ITC, 25°C, 19 injections of 2.2 μL; 20 mM HEPES (pH 7.3), 150 mM NaCl, 5 mM MgCl2, 1 mM TCEP; one set of sites model; protein in the cell not given
NF1(GRD) R1250A (human) = NF1(GRD) R1250A (human) (UniProt P21359); test: as above
NF1(GRD) D1217A (human) = NF1(GRD) D1217A (human) (UniProt P21359); test: as above

B1: NF1(GRD), neurofibromin GAP-related domain, wild type (ITC), P21359-2 D1217A (protein)
chain: ETVLADRFERLVELVTMMGAQGELPIAMALANVVPCSQWDELARVLVTLFDSRHLLYQLLWNMFSKEVELADSMQTLFRGNSLASKIMTFCFKVYGATYLQKLLDPLLRIVITSSDWQHVSFEVDPTRLEPSESLEENQRNLLQMTEKFFHAIISSSSEFPPQLRSVCHCLYQVVSQRFPQNSIGAVGSAMFLRFINPAIVSPYEAGILDKKPPPRIERGLKLMSKILQSIANHVLFTKEEHMRPFNDFVKSNFDAARRFFLDIASDCPTSDAVNHSLSFISDGNVLALHRLLWNNQEKIGQYLSSNRDHKAVGRRPFDKMATLLAYLGPPEH
Kd [1]: 14 µM

B2: NF1(GRD), neurofibromin GAP-related domain, wild type (ITC), P21359-2 R1250A (protein)
chain: ETVLADRFERLVELVTMMGDQGELPIAMALANVVPCSQWDELARVLVTLFDSAHLLYQLLWNMFSKEVELADSMQTLFRGNSLASKIMTFCFKVYGATYLQKLLDPLLRIVITSSDWQHVSFEVDPTRLEPSESLEENQRNLLQMTEKFFHAIISSSSEFPPQLRSVCHCLYQVVSQRFPQNSIGAVGSAMFLRFINPAIVSPYEAGILDKKPPPRIERGLKLMSKILQSIANHVLFTKEEHMRPFNDFVKSNFDAARRFFLDIASDCPTSDAVNHSLSFISDGNVLALHRLLWNNQEKIGQYLSSNRDHKAVGRRPFDKMATLLAYLGPPEH
Kd [1]: 1.08 µM

B3: SPRED1(EVH1), SPRED1(13–125), wild type (ITC), Q7Z699 R24Q (protein)
chain: SYARVRAVVMTQDDSSGGWLPLGGSGLSSVTVFKVPHQEENGCADFFIRGERLRDKMVVLECMLKKDLIYNKVTPTFHHWKIDDKKFGLTFQSPADARAFDRGIRRAIEDISQ
Kd [2]: 4 µM

B4: SPRED1(EVH1), SPRED1(13–125), wild type (ITC), Q7Z699 G30R (protein)
chain: SYARVRAVVMTRDDSSGRWLPLGGSGLSSVTVFKVPHQEENGCADFFIRGERLRDKMVVLECMLKKDLIYNKVTPTFHHWKIDDKKFGLTFQSPADARAFDRGIRRAIEDISQ
Kd [2]: 33.7 µM

B5: SPRED1(13–125) G30R (domain or fragment)
chain: SYARVRAVVMTRDDSSGRWLPLGGSGLSSVTVFKVPHQEENGCADFFIRGERLRDKMVVLECMLKKDLIYNKVTPTFHHWKIDDKKFGLTFQSPADARAFDRGIRRAIEDISQ
fold weaker binding than wild-type SPRED1 (printed as decrease in KD) [3]: > 100 fold

B6: SPRED1(EVH1), SPRED1(13–125), wild type (ITC) (domain or fragment)
chain: SYARVRAVVMTRDDSSGGWLPLGGSGLSSVTVFKVPHQEENGCADFFIRGERLRDKMVVLECMLKKDLIYNKVTPTFHHWKIDDKKFGLTFQSPADARAFDRGIRRAIEDISQ
Kd [3]: 0.224 µM
fold reduced binding against wild-type NF1(GRD) (NF1(GRD) R1250A (human)): 5 fold
fold weaker affinity than wild-type NF1(GRD) (NF1(GRD) D1217A (human)): > 50 fold

B7: SPRED1(13–125) R24Q (domain or fragment)
chain: SYARVRAVVMTQDDSSGGWLPLGGSGLSSVTVFKVPHQEENGCADFFIRGERLRDKMVVLECMLKKDLIYNKVTPTFHHWKIDDKKFGLTFQSPADARAFDRGIRRAIEDISQ
fold weaker binding than wild-type SPRED1 [3]: 20 fold

B8: SPRED1(13–125) S105D, purified phosphomimetic (domain or fragment)
chain: SYARVRAVVMTRDDSSGGWLPLGGSGLSSVTVFKVPHQEENGCADFFIRGERLRDKMVVLECMLKKDLIYNKVTPTFHHWKIDDKKFGLTFQDPADARAFDRGIRRAIEDISQ
fold weaker affinity than wild-type SPRED1 [3]: 10 fold

Reference: publication PMC7437355
